Molecular target: purified folded MHC-complex (Example 34, allele and peptide not stated)
Test: sandwich ELISA, W6/32 coated, HRP rabbit anti-β2m detection

## W6/32 mouse-anti-HLA-ABC antibody (Dako M0736)
  fold of OD450 against the negative control β2m: > 6 fold

From patent publication US20110236411A1
